Results on two proteins are retold here after PMC7573591 (Nature Communications, 2020).

Substrate in data set [1]: CC(C)=CCC/C(C)=C/CC/C(C)=C/CO[P@@](=O)(O)OP(=O)(O)O
Briefly: purified protein. As to conditions: 100 μM IPP, 0.5 mM MgCl2, pH 7.5, 30 °C, 0.02% Triton X-100. The class given is biochemical, Homo sapiens.

Substrate in data set [2]: C=C(C)CCO[P@@](=O)(O)OP(=O)(O)O
Briefly: purified protein. As to conditions: 10 μM FPP, 0.5 mM MgCl2, pH 7.5, 30 °C, 0.02% Triton X-100, labelled compound.

Data set [3] deals with the molecule itself. Nature of the data set: cross-linking; about 8 µM purified shcis-PT with 0.005% glutaraldehyde, room temperature, 15 min; products analysed by SDS-PAGE.

B1: shcis-PT (soluble human cis-prenyltransferase complex, DHDDS-sNgBR) (Homo sapiens) (protein)
chain 1: MSWIKEGELSLWERFCANIIKAGPMPKHIAFIMDGNRRYAKKCQVERQEGHSQGFNKLAETLRWCLNLGILEVTVYAFSIENFKRSKSEVDGLMDLARQKFSRLMEEKEKLQKHGVCIRVLGDLHLLPLDLQELIAQAVQATKNYNKCFLNVCFAYTSRHEISNAVREMAWGVEQGLLDPSDISESLLDKCLYTNRSPHPDILIRTSGEVRLSDFLLWQTSHSCLVFQPVLWPEYTFWNLFEAILQFQMNHSVLQKARDMYAEERKRQQLERDQATVTEQLLREGLQASGDAQLRRTRLHKLSARREERVQGFLQALELKRADWLARLGTASA
chain 2: RGGSCLAAAHHRMRWRADGRSLEKLPVHMGLVITEVEQEPSFSDIASLVVWCMAVGISYISVYDHQGIFKRNNSRLMDEILKQQQELLGLDCSKYSPEFANSNDKDDQVLNCHLAVKVLSPEDGKADIVRAAQDFCQLVAQKQKRPTDLDVDTLASLLSSNGCPDPDLVLKFGPVDSTLGFLPWHIRLTEIVSLPSHLNISYEDFFSALRQYAACEQRLGK
notes: full-length DHDDS 1-333 plus cytosolic NgBR 73-293 (no transmembrane domain); co-expressed in E. coli; TRX fusions, His- and Strep-tags cut by TEV
The Km is the concentration of substrate that gives half-maximal velocity. As a reminder, the kcat is the number of substrate molecules converted per active site and unit of time at saturation. For the protein B1, the Km is 0.11 ± 0.01 µM in the data set “purified protein [1]” and 6.23 ± 1.50 µM in “purified protein [2]”. Also, the kcat in “purified protein [1]” and in “purified protein [2]” was 0.74 ± 0.02 s⁻¹ in each case.

B2: dehydrodolichyl diphosphate synthase (DHDDS), full-length human, residues 1-333 (enzyme, UniProt Q86SQ9 1-333, looked up)
chain: MSWIKEGELSLWERFCANIIKAGPMPKHIAFIMDGNRRYAKKCQVERQEGHSQGFNKLAETLRWCLNLGILEVTVYAFSIENFKRSKSEVDGLMDLARQKFSRLMEEKEKLQKHGVCIRVLGDLHLLPLDLQELIAQAVQATKNYNKCFLNVCFAYTSRHEISNAVREMAWGVEQGLLDPSDISESLLDKCLYTNRSPHPDILIRTSGEVRLSDFLLWQTSHSCLVFQPVLWPEYTFWNLFEAILQFQMNHSVLQKARDMYAEERKRQQLERDQATVTEQLLREGLQASGDAQLRRTRLHKLSARREERVQGFLQALELKRADWLARLGTASA
notes: human dehydrodolichyl diphosphate synthase (DHDDS), full length, residues 1-333, UniProt Q86SQ9; Cloned into pET-32b as a TRX fusion with a TEV site; tags and TRX removed by TEV protease before the final size-exclusion step; also called DHDD synthase; catalytic subunit of hcis-PT / shcis-PT / xcis-PT
For B2, the binding result in data set [3] is reported as “binds”.
